Reference: publication PMC5623700
Read-outs that look alike come from different tables or passages of the source.

What was measured:
[1] = molecular target: human FcRn (human FCGRT & B2M heterodimer) (human) (UniProt P55899); experiment: BLI; Octet Red384; FcRn amine-coupled to AR2G tips; 320 nM IgG1 associated at pH 6 and dissociated at pH 7.2; fraction bound 5 s after the start of dissociation (response at 0 s = 100%)
[2] = molecular target: human FcγRI with a C-terminal AVI-tag and C-terminal His-tag (Sino Biological) (human) (UniProt P12314); experiment: SPR; Biacore T200, single-cycle kinetics; biotinylated FcγRI captured on a CAPchip, IgG1 injected at 0.06-5 nM; HBS-EP+; 37 °C; 1:1 kinetic model; KD observed
[3] = molecular target: human FcRn (human FCGRT & B2M heterodimer) (human) (UniProt P55899); experiment: BLI; as a4 (FcRn on AR2G tips, pH 6), but fitted with a 1:1 binding model; not corrected for the molecular weight of the aggregates; apparent
[4] = molecular target: human FcγRI with a C-terminal AVI-tag and C-terminal His-tag (Sino Biological) (human) (UniProt P12314); experiment: SPR; Biacore T200, single-cycle kinetics; biotinylated FcγRI captured on a CAPchip, IgG1 injected at 0.06-5 nM; HBS-EP+; 37 °C; 1:1 kinetic model; KD observed; remark: listed apart in the source
[5] = molecular target: human FcRn (human FCGRT & B2M heterodimer) (human) (UniProt P55899); experiment: BLI; Octet Red384, multicycle kinetics; FcRn amine-coupled to AR2G tips, IgG1 2.5-80 nM; association and dissociation at pH 6 (50 mM phosphate, 150 mM NaCl, 0.1% Tween 20); heterogeneous ligand model; KD observed
[6] = molecular target: recombinant human FcγRIIIb (human) (UniProt O75015); experiment: SPR; SPR imaging (IBIS MX96); biotinylated Fcγ receptors on a streptavidin G-Strep SensEye sensor, IgG injected; HBS pH 7.2/0.05% Tween-80; binding level at equilibrium (2 min) relative to a reference sample set to 100%; 50 and 250 μg/mL IgG1 (FcγRIIa, FcγRIIIa) or 250 and 1000 μg/mL (FcγRIIb, FcγRIIIb); corrected for decay of the surface
[7] = molecular target: recombinant human FcγRIIb (human) (UniProt P31994); experiment: as above
[8] = molecular target: recombinant human FcγRIIIa (human) (UniProt P08637); experiment: as above
[9] = molecular target: recombinant human FcγRIIa (human) (UniProt P12318); experiment: as above
[10] = molecular target: T1, neonatal Fc receptor (FcRn), FCGRT + beta2-microglobulin heterodimer (UniProt P55899+P61769); experiment: biolayer interferometry (Octet Red384), dissociation after a pH switch; conditions: pH 7.2; 150 mM NaCl; association in 50 mM phosphate pH 6; dissociation in 50 mM phosphate pH 7.2 (Methods; Results and Discussion say pH 7.4)
[11] = molecular target: T1, neonatal Fc receptor (FcRn), FCGRT + beta2-microglobulin heterodimer; experiment: as above; conditions: pH 7.2; 150 mM NaCl; association in 50 mM phosphate pH 6; dissociation in 50 mM phosphate pH 7.2 (Methods; Results and Discussion say pH 7.4); remark: listed apart in the source
[12] = molecular target: human FcRn (human FCGRT & B2M heterodimer) (human) (UniProt P55899); experiment: BLI; Octet Red384, multicycle kinetics; FcRn amine-coupled to AR2G tips, IgG1 2.5-80 nM; association and dissociation at pH 6 (50 mM phosphate, 150 mM NaCl, 0.1% Tween 20); heterogeneous ligand model; KD observed; remark: listed apart in the source
[13] = stress condition 40 °C‐1000 r.p.m._24 h
[14] = stress condition 40 °C‐1000 r.p.m._48 h

Chain of UniProt O75015 (O75015 17-200): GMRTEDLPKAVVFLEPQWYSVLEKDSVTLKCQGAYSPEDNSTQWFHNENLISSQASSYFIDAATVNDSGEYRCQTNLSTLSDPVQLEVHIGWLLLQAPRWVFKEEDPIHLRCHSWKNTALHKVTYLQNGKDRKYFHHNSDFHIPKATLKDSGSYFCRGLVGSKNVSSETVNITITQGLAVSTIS
Chain of UniProt P12318 (P12318 34-317): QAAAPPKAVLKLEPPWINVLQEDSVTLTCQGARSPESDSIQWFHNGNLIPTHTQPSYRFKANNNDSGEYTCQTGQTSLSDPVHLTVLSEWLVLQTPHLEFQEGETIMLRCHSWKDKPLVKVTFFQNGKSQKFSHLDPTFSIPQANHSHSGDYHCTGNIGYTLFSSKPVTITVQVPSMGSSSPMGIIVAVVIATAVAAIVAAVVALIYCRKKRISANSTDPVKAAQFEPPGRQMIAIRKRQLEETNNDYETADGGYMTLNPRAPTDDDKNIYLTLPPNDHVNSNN
Chain of UniProt P12314 (P12314 16-292): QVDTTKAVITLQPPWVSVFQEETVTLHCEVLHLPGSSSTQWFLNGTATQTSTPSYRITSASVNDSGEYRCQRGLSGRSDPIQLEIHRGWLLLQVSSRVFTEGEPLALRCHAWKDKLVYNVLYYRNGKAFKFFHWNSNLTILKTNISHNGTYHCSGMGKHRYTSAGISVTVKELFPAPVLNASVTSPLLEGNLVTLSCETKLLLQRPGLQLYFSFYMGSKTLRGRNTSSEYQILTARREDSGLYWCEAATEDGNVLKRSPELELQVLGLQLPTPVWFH
T1 sequence (P55899 24-297, chain 1 of 2): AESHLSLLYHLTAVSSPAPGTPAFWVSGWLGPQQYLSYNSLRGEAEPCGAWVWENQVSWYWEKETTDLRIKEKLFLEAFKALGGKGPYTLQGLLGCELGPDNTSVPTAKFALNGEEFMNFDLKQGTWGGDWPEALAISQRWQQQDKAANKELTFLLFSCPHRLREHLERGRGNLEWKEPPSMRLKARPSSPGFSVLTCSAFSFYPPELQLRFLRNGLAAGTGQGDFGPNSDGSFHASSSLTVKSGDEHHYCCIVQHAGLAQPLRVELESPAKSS
T1 sequence (P61769 21-119, chain 2 of 2, further chain): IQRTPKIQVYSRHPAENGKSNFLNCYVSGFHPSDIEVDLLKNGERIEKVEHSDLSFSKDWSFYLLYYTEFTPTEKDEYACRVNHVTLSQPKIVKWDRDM
Chain of UniProt P08637 (P08637 17-254): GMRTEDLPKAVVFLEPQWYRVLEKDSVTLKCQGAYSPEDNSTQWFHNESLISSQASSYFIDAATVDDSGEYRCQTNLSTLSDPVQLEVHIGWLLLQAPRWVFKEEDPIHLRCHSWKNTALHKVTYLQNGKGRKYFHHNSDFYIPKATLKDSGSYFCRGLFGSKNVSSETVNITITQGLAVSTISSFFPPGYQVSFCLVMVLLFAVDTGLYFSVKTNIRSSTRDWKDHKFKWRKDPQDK
Chain of UniProt P31994 (P31994 43-310): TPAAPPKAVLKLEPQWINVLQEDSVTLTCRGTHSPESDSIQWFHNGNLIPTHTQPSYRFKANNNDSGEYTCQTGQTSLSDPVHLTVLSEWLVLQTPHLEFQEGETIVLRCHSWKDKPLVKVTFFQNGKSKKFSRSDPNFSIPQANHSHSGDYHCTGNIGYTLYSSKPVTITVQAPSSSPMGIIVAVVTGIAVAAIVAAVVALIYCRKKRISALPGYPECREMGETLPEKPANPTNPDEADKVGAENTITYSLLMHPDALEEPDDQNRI

covalent dimer fraction of IgG1 (DSS cross-linked, preparative SEC) (antibody)
fraction bound at neutral pH [1]: 17.3% | Kd [2]: 0.08 nM

covalent oligomer fraction of IgG1 (DSS cross-linked, preparative SEC) (antibody)
fraction bound at neutral pH [1]: 17.7% | Kd [3]: 3 nM | Kd [2]: 0.07 nM

fully deglycosylated human IgG1 (PNGase F) (antibody)
maximum response [4]: 5 RU | Kd [5]: 6.3 nM

human IgG1 after accelerated asparagine deamidation at pH 8 (antibody)
fraction bound at neutral pH ([1]; stress condition pH8.0_48 h): 7.8% | fraction bound at neutral pH ([1]; stress condition pH8.0_72 h): 6.5%

human IgG1 after accelerated methionine oxidation with H2O2 (antibody)
fraction bound at neutral pH [1]: 6.4% | Kd ([4]; stress condition H2O2_0.1%): 0.93 nM | Kd ([4]; stress condition H2O2_0.25%): 0.53 nM | Kd ([4]; stress condition H2O2_0.5%): 0.42 nM | Kd [5]: 6.2 nM

human IgG1 after repeated freeze/thaw cycles (antibody)
relative binding (% of reference) ([6]; stress condition F‐T 1): 106% | relative binding (% of reference) ([6]; stress condition F‐T 5): 105% | relative binding (% of reference) ([6]; stress condition F‐T 10): 102% | relative binding (% of reference) ([7]; stress condition F‐T 1): 102% | relative binding (% of reference) ([7]; stress condition F‐T 5): 97.2% | relative binding (% of reference) ([7]; stress condition F‐T 10): 95.9% | relative binding (% of reference) ([8]; stress condition F‐T 1): 80.1% | relative binding (% of reference) ([8]; stress condition F‐T 5): 103% | relative binding (% of reference) ([8]; stress condition F‐T 10): 98.7% | relative binding (% of reference) ([9]; stress condition F‐T 1): 102% | relative binding (% of reference) ([9]; stress condition F‐T 5): 92.3% | relative binding (% of reference) ([9]; stress condition F‐T 10): 85.9% | fraction bound at neutral pH ([1]; stress condition F‐T 1): 8.4% | fraction bound at neutral pH ([1]; stress condition F‐T 5): 8.1% | fraction bound at neutral pH ([1]; stress condition F‐T 10): 7.4% | Kd ([5]; stress condition F‐T 1): 5.7 nM | Kd ([5]; stress condition F‐T 10): 5.2 nM

human IgG1 after thermal/shake stress at 40 °C and 1000 r.p.m. (antibody)
fraction bound at neutral pH [1, 13]: 7.9% | fraction bound at neutral pH [1, 14]: 7.3% | Kd [4, 13]: 0.53 nM | Kd [4, 14]: 0.45 nM | Kd [5, 13]: 5.5 nM | Kd [5, 14]: 5 nM | Kd ([5]; stress condition 40 °C‐1000 r.p.m._72 h): 5.4 nM

human IgG1 heated to 70 °C for 15 min at 300 r.p.m. (antibody)
relative binding (% of reference) [6]: 127% | relative binding (% of reference) [7]: 93.4% | relative binding (% of reference) [8]: 72.7% | relative binding (% of reference) [9]: 62.5%

human IgG1 heated to 75 °C for 15 min at 300 r.p.m. (antibody)
relative binding (% of reference) [6]: > 1000% | relative binding (% of reference) [7]: > 1000% | relative binding (% of reference) [8]: 389% | relative binding (% of reference) [9]: > 1000%

human IgG1 kept at 40 °C in HBS buffer pH 7.2 (control of the deamidation stress) (antibody)
fraction bound at neutral pH [1]: 7.6% | Kd ([4]; stress condition pH7.2_48 h): 0.59 nM | Kd ([4]; stress condition pH7.2_72 h): 0.48 nM | Kd ([4]; stress condition pH7.2_96 h): 0.58 nM | Kd ([5]; stress condition pH7.2_48 h): 5.5 nM | Kd ([5]; stress condition pH7.2_72 h): 6.1 nM | Kd ([5]; stress condition pH7.2_96 h): 5.6 nM

human IgG1 monoclonal antibody, reference (unstressed)
Fraction bound (5 s after start of dissociation at neutral pH) [10]: 7.5% | Fraction bound (5 s after start of dissociation at neutral pH) [11]: 8.3%

human IgG1 monoclonal antibody, reference sample
fraction bound at neutral pH [1]: 7.5% | Kd [12]: 6.3 nM | Kd [4]: 0.56 nM | maximum response [4]: 80 RU | Kd [5]: 5.7 nM | Kd [2]: 0.66 nM

human IgG1 with 3% afucosylation (antibody)
relative binding (% of reference) [6]: 83.9% | relative binding (% of reference) [7]: 90.6% | relative binding (% of reference) [8]: 79.7% | relative binding (% of reference) [9]: 102% | fraction bound at neutral pH [1]: 14.3% | Kd [4]: 0.44 nM | Kd [5]: 3.7 nM

human IgG1 with 8% afucosylation (antibody)
Kd [4]: 0.43 nM | Kd [5]: 3.7 nM

human IgG1 with 70% afucosylation (antibody)
relative binding (% of reference) [6]: 186% | relative binding (% of reference) [7]: 110% | relative binding (% of reference) [8]: 159% | relative binding (% of reference) [9]: 104% | fraction bound at neutral pH [1]: 15.7% | Kd [4]: 0.33 nM | Kd [5]: 3.8 nM

human IgG1, 0% deglycosylated control of the deglycosylation (antibody)
Kd [4]: 0.52 nM | Kd [5]: 4.9 nM

human IgG1, 1 freeze/thaw cycle
Fraction bound (5 s after start of dissociation at neutral pH) [11]: 8.4%

human IgG1, 5 freeze/thaw cycles
Fraction bound (5 s after start of dissociation at neutral pH) [11]: 8.1%

human IgG1, 10 freeze/thaw cycles
Fraction bound (5 s after start of dissociation at neutral pH) [11]: 7.4%

human IgG1, 40 °C-1000 r.p.m._24 h
Fraction bound (5 s after start of dissociation at neutral pH) [11]: 7.9%

human IgG1, 40 °C-1000 r.p.m._48 h
Fraction bound (5 s after start of dissociation at neutral pH) [11]: 7.3%

human IgG1, 40 °C-1000 r.p.m._72 h
Fraction bound (5 s after start of dissociation at neutral pH) [11]: 8.6%

human IgG1, AF 3 (3% afucosylated)
Fraction bound (5 s after start of dissociation at neutral pH) [11]: 14.3%

human IgG1, AF 70 (70% afucosylated)
Fraction bound (5 s after start of dissociation at neutral pH) [11]: 15.7%

human IgG1, DG 0 (glycosylated control of the deglycosylation experiment)
Fraction bound (5 s after start of dissociation at neutral pH) [11]: 8.5%

human IgG1, DG 100 (fully deglycosylated with PNGase F)
Fraction bound (5 s after start of dissociation at neutral pH) [11]: 4.1%

human IgG1, H2O2_0.5% oxidised
Fraction bound (5 s after start of dissociation at neutral pH) [11]: 7.7%

human IgG1, H2O2_0.25% oxidised
Fraction bound (5 s after start of dissociation at neutral pH) [11]: 6.4%

human IgG1, deamidated pH8.0_48 h
Fraction bound (5 s after start of dissociation at neutral pH) [11]: 7.8%

human IgG1, deamidated pH8.0_72 h
Fraction bound (5 s after start of dissociation at neutral pH) [11]: 6.5%

human IgG1, deamidated pH8.0_96 h
Fraction bound (5 s after start of dissociation at neutral pH) [11]: 10%

human IgG1, monomer fraction of the DSS cross-linking preparation
Fraction bound (5 s after start of dissociation at neutral pH) [10]: 8.9%

human IgG1, pH7.2_48 h control
Fraction bound (5 s after start of dissociation at neutral pH) [11]: 7.6%

human IgG1, pH7.2_72 h control
Fraction bound (5 s after start of dissociation at neutral pH) [11]: 8.3%

human IgG1, pH7.2_96 h control
Fraction bound (5 s after start of dissociation at neutral pH) [11]: 7.9%

monomer fraction of the DSS-treated IgG1 sample (preparative SEC) (antibody)
fraction bound at neutral pH [1]: 8.9% | Kd [12]: 7 nM | Kd [2]: 0.52 nM
